Assay results reported in the supplement of paper PMC12042874.
± gives the uncertainty stated by the source.

Assay: amyloid nucleation score (Sup35N fusion, yeast selection) (log enrichment); library NNK2; higher = more nucleation; inactive = no reads after selection
Summary of the method: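 Yeast lacking psi expressed peptides of 20 random codons fused to Sup35N, received 100 μM copper sulfate for 24 hours, and were then grown for 7 days at 30°C on medium lacking adenine and uracil. Illumina sequencing of input and output plasmid inserts provided the reads. Nucleation scores are DiMSum log enrichments of output over input, centred on the mode of non-aggregating sequences. Any sequence with under 100 input reads was excluded.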

Substance | amyloid nucleation score
PIIFSLSTFSCNVYEIRSNG | 3.57 ± 0.093
PIIIDDLMYLGDVDLTMFGE | -0.234 ± 0.74
PILYGSNGVRFV | -1.05 ± 1.1
PKSLCYSTLTRGWCQM | -0.418 ± 1
PLIYLSSFYIDCHLWSSFGV | 6.806 ± 0.035
PLNSMNVAESESYGLSQMS | 1.28 ± 0.37
PLTNSNRPGMKHLSSKQSSV | 0.138 ± 0.41
PLVTWHFS | 0.413 ± 0.31
PLWCSAGALLYWYKYPWFWL | -0.332 ± 0.63
PLYPLCSHPYVGFVTHTISR | -0.053 ± 1
PMMYQRLCIMFFCSTITLMI | 1.92 ± 0.14
PMSDMFYFFGFECSRLIMSN | inactive
PNLIGLLVGLRVNSWSVAIT | 0.632 ± 0.21
PNPRPVSICNRLYPF | -0.246 ± 0.38
PNQISNA | -0.47 ± 1.1
PPDNVSNWYVVKWAGRMMQK | 4.13 ± 0.044
PPRGFFVAWIVDFRGAGLMG | -0.743 ± 0.48
PPVLLISKSSFMQLGCSLST | -0.587 ± 1
PQWWRNLLSKSGTNAADCYL | 0.577 ± 0.57
PRILLQSLRI | 2.47 ± 0.064
PRRVDRW | 0.339 ± 0.2
PRSSAVYIRTLRVSQKVDPM | 2.64 ± 0.11

Substance | amyloid nucleation score
PRVVGGFANISMWLATGTPF | 2.94 ± 0.093
PRVVYNFLNWGIGFYFVVDD | 7.161 ± 0.027
PSCRWKLHEMSTSSVQFWMK | 5.59 ± 0.064
PSFILIFNGCKWVPYASKCG | 8.916 ± 0.021
PSGPSHIYGWYDSFHNCSYN | -0.369 ± 0.49
PSHFVGFCAHSYDVGVFMWV | 0.077 ± 0.42
PSLAKRGVSVCLAKANSRTI | -0.388 ± 1
PSLMHSHLESNNTSA | -0.21 ± 0.44
PSSFNSRFFCLVTNGWQYMS | inactive
PSSGPPNESAMSPITYSGEG | -0.684 ± 1.1
PSTIGQYITR | -0.119 ± 0.49
PSTYWRMILKFRVCEIVHGT | 0.231 ± 0.21
PSWHI | -0.193 ± 0.47
PSYMFITVLYLQTEFGFDDT | 3.82 ± 0.074
PSYPSVSRVK | 0.151 ± 0.24
PTCGNSPMVRWCSAETFVWG | 3.04 ± 0.13
PTGNQLKKCVDKCGGRSGGE | inactive
PVKPDSVGVRSIMGIVFGYR | 2.94 ± 0.051
PVRCMIAHNCLIFWLVWTVV | -0.154 ± 0.25
PVRGE | 0.089 ± 0.8
PVRRRGNLFIRRLLSFEKKL | inactive
PWALTFNHCKIDDTKRGHIV | 0.64 ± 0.8

Substance | amyloid nucleation score
PWHDEVVVSNQVYTYMGPSS | 0.074 ± 0.3
PWLDIFNVACTSRGSLVWYE | -0.855 ± 1.1
PWWLWVGSMYENYGFAPFWV | -0.969 ± 0.3
PYILRFRRDLRGFRI | 0.449 ± 0.56
PYISWGSTGFVNAGRY | 3.74 ± 0.072
PYLGRFFSCLYTEWDTP | inactive
PYTFQYY | -0.549 ± 0.26
QACRSTGNSFVLNRYMKERT | 0.215 ± 0.24
QAPLWENSVSVPRLWWNSLS | -0.342 ± 1.1
QASSGSKDLD | 0.102 ± 0.23
QEMYALACHVLTCCNLRNKR | 9.866 ± 0.034
QEVELGMGPKRGETVKEVDL | 0.098 ± 0.22
QFAYTRSSPVKIYLYNNYGA | 8.109 ± 0.037
QFDWDRVYMFSTLPFCIWWV | -0.783 ± 0.35
QFEVNNLTPIGEEGGPKDCP | 0.759 ± 0.43
QFHFK | 0.036 ± 0.35
QFSLLTKYTNVHILGSEEFG | 0.388 ± 0.36
QFSSLVFAEEKMNPRMCMVR | -0.294 ± 0.2
QGSNRACGLSEDCLFTV | 0.282 ± 0.22
QHRMDTDTNYFDKDVGHFIS | -0.984 ± 0.32
QIDYRLIVGRSG | 0.32 ± 0.74
QIRAPHGGYVYYAGVATYSN | -0.206 ± 1.1

Substance | amyloid nucleation score
QIVWLHCLFRRFSNGATSDD | -0.122 ± 0.23
QKHPGFKYHQNLRLVSLSKR | -0.837 ± 0.45
QKRRDFVVHCIRELWFYEHD | inactive
QKTRLSPVYHVGNSGLSPSV | 0.29 ± 0.77
QLFGFGYVLVV | -1.12 ± 0.78
QLGRVSHRVTDRIFWKAYPA | 0.353 ± 0.35
QLNVSLNRLFLCGGSAELPS | 7.55 ± 0.076
QMAINAGRRRRHAEYGLRNS | 0.684 ± 0.57
QMSLAGRG | inactive
QMVGWSMYWIKVMRISA | 0.105 ± 1.1
QNIKIW | -1.02 ± 0.55
QPAVQGITRRKVCWVIMQNA | 0.336 ± 0.46
QRDHWNAALCKVLLLSGLLR | 0.057 ± 0.33
QRRQVDSVM | 1.27 ± 0.27
QSAFNN | inactive
QSKYVSDPSPPETR | 1.48 ± 0.32
QSRDKYLKFRPSLWATEMTW | -0.127 ± 0.31
QSSNLMGL | -0.338 ± 0.39
QSSYVATWVTLNLGCYFDWK | 0.284 ± 1.1
